# Results taken from paper PMC6513997, “PFA ependymoma-associated protein EZHIP inhibits PRC2 activity through a H3 K27M-like mechanism” (Nature Communications, 2019).
# Primed or numbered codes have the meaning given here. Where no end group is shown, it is not given here. Biotin′ = not defined here
# B1: recombinant EZHIP purified from SF9 cells (natural protein)
# chain: MATQSDMEKEQKHQQDEGQGGLNNETALASGDACGTGNQDPAASVTTVSSQASPSGGAALSSSTAGSSAAAATSAAIFITDEASGLPIIAAVLTERHSDRQDCRSPHEVFGCVVPEGGSQAAVGPQKATGHADEHLAQTKSPGNSRRRKQPCRNQAAPAQKPPGRRLFPEPLPPSSPGFRPSSYPCSGASTSSQATQPGPALLSHASEARPATRSRITLVASALRRRASGPGPVIRGCTAQPGPAFPHRATHLDPARLSPESAPGPARRGRASVPGPARRGCDSAPGPARRGRDSAPVSAPRGRDSAPGSARRGRDSAPGPALRVRTARSDAGHRSTSTTPGTGLRSRSTQQRSALLSRRSLSGSADENPSCGTGSERLAFQSRSGSPDPEVPSRASPPVWHAVRMRASSPSPPGRFFLPIPQQWDESSSSSYASNSSSPSRSPGLSPSSPSPEFLGLRSISTPSPESLRYALMPEFYALSPVPPEEQAEIESTAHPATPPEP
# B2: biotinylated H3.3 K27M (18-37) peptide (peptide)
# peptide: KQLATKAARMSAPSTGGVKKYK
# modifications: not fully specified; biotin on the added C-terminal K
# B3: biotinylated EZHIP (403-422) peptide, K27M-like peptide (peptide)
# peptide: AVRMRASSPSPPGRFFLPIPK-{Biotin′}
# modifications: not fully specified (residue 21); printed as AVRMRASSPSPPGRFFLPIPK-biotin
# Legend:
# [1] = molecular target: native PRC2 purified from HeLa cells expressing FLAG-tagged EZH2 ( | human (endogenous in HeLa), UniProt Q15910 1-746); assay: steady-state enzyme kinetics (inhibition of methyltransferase activity); increasing oligonucleosome substrate with PRC2, SAM and varying EZHIP; Michaelis-Menten and Lineweaver-Burk curves fitted with competitive mode of inhibition; details: both partners purified
# [2] = molecular target: recombinant PRC2 purified from SF9 cells (EZH2, SUZ12, EED, RBBP4) (human, UniProt Q15910 1-746; Q15022 1-739; O75530 1-441; Q09028 1-425); assay: cell-based or functional assay
# Chain of recombinant PRC2 purified from SF9 cells (EZH2, SUZ12, EED, RBBP4) (Q15910 whole entry, chain 1 of 4): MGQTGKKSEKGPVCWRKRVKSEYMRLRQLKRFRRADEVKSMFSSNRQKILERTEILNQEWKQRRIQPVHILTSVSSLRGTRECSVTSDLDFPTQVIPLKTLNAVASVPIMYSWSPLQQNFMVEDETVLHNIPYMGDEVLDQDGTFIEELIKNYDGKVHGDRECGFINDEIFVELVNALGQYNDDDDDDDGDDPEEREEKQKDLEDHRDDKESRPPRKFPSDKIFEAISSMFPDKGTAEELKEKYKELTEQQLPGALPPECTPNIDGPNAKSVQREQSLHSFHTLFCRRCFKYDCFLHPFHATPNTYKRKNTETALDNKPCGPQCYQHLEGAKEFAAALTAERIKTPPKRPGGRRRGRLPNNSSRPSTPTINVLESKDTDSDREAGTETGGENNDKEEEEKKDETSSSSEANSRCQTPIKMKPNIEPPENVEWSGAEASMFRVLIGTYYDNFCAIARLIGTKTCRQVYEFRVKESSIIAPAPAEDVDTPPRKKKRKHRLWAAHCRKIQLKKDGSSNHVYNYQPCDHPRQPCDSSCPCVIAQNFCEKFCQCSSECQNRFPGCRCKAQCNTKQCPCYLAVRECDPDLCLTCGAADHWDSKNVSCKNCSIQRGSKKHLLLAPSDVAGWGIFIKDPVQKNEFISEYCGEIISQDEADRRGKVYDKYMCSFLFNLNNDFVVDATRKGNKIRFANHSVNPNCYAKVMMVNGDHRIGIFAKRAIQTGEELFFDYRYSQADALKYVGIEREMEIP
# Chain of recombinant PRC2 purified from SF9 cells (EZH2, SUZ12, EED, RBBP4) (Q15022 whole entry, chain 2 of 4): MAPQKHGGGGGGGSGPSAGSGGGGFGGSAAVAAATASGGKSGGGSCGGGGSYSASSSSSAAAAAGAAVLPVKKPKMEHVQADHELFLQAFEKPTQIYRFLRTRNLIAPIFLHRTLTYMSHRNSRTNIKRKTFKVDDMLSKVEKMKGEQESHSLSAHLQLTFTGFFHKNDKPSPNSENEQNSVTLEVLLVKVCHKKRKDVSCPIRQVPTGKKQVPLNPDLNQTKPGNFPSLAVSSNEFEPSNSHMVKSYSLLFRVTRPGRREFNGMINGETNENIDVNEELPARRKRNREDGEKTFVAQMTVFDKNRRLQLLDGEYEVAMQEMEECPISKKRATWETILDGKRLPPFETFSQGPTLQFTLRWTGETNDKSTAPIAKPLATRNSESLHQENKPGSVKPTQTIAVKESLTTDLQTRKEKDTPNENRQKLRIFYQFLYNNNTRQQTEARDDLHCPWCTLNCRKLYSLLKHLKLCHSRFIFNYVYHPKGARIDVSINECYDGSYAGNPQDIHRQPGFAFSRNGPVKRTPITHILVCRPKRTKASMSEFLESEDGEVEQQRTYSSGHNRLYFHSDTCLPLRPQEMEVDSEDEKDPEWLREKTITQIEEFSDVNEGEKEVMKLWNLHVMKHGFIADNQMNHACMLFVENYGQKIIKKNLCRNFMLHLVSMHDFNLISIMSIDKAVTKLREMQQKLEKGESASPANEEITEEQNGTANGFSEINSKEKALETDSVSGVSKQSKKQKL
# Chain of recombinant PRC2 purified from SF9 cells (EZH2, SUZ12, EED, RBBP4) (O75530 whole entry, chain 3 of 4): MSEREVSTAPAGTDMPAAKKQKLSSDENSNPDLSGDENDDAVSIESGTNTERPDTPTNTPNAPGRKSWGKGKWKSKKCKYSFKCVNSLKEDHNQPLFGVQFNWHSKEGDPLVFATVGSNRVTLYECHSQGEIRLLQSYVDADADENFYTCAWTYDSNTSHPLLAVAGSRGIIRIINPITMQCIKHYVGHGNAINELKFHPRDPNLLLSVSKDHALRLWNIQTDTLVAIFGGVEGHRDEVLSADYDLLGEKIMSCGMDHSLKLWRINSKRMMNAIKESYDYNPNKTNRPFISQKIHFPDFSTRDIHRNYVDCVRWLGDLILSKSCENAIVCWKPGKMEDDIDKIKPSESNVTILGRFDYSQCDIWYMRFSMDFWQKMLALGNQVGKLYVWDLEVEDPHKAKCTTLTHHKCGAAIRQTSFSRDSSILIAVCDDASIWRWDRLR
# Chain of recombinant PRC2 purified from SF9 cells (EZH2, SUZ12, EED, RBBP4) (Q09028 whole entry, chain 4 of 4): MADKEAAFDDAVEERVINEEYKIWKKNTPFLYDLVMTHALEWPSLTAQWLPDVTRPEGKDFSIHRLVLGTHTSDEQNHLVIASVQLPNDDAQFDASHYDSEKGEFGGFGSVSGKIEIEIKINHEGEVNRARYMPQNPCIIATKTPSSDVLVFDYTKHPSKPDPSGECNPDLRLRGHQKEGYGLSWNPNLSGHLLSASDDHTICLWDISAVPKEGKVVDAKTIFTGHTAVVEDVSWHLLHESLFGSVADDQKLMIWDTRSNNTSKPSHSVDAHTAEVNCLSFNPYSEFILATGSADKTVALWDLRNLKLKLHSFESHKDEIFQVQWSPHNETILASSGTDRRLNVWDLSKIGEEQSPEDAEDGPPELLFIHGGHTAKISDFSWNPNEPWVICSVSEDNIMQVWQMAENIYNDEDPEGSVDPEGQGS
# Chain of native PRC2 purified from HeLa cells expressing FLAG-tagged EZH2 (Q15910 whole entry, chain 1 of 4): as the sequence (Q15910 whole entry, chain 1 of 4) above
# Chain of native PRC2 purified from HeLa cells expressing FLAG-tagged EZH2 (Q15022 whole entry, chain 2 of 4, further chain): as the sequence (Q15022 whole entry, chain 2 of 4) above
# Chain of native PRC2 purified from HeLa cells expressing FLAG-tagged EZH2 (O75530 2-441, chain 3 of 4, further chain): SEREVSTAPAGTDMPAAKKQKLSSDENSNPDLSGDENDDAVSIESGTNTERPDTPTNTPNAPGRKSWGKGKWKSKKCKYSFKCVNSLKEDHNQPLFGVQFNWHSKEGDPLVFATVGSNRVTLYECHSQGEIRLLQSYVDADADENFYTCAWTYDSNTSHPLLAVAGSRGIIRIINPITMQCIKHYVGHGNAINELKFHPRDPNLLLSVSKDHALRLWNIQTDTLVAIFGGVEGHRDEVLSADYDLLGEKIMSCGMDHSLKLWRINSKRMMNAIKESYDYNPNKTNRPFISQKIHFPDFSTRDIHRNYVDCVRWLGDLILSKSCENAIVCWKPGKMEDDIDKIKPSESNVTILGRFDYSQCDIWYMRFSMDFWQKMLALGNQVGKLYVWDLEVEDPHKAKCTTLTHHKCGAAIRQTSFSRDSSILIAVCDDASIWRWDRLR
# Chain of native PRC2 purified from HeLa cells expressing FLAG-tagged EZH2 (Q09028 2-425, chain 4 of 4, further chain): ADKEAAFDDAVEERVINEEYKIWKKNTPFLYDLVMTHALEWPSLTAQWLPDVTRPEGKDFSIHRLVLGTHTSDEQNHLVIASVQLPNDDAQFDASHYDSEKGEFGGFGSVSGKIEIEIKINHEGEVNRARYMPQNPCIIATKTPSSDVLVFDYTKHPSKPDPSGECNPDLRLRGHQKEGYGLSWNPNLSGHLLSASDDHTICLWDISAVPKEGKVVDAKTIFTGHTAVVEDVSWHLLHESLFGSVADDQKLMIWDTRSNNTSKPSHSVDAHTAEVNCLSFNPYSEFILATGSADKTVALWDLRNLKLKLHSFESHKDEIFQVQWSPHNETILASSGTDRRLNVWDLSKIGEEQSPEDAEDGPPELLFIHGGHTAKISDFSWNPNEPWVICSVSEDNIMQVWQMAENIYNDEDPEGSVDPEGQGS
binder,measurement,setting,value
B1,Ki,[1],0.00222 µM
B2,"IC50 of rPRC2-Ezh2 methyltransferase activity on H3 (18-37) peptide substrate, H3 K27M (18-37) peptide titrated, with H3K27me3 stimulatory peptide",[2],27.9 µM
B3,"IC50 of PRC2 methyltransferase activity on H3 18-37 peptide, EZHIP KLP titrated, without H3K27me3 stimulatory peptide",[2],35 µM
same,"IC50 of rPRC2-Ezh2 methyltransferase activity on H3 (18-37) peptide substrate, KLP (403-423) peptide titrated, with H3K27me3 stimulatory peptide",[2],4.1 µM
